Assays:
Test in all cases: fluorescence polarization
[1] = molecular target: T1, RRM1 analog F29A (Homo sapiens, UniProt Q8IUH3 23-202, F29A;F124A;Y165A)
T1 sequence: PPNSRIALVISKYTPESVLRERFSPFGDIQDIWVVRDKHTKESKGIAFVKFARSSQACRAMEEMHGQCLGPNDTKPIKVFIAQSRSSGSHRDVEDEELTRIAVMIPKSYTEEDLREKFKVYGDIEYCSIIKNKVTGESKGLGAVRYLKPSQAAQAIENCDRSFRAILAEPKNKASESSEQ

[2] = molecular target: T2, RRM1 analog R27A (Homo sapiens, UniProt Q8IUH3 23-202, R27A;F124A;Y165A)
T2 sequence: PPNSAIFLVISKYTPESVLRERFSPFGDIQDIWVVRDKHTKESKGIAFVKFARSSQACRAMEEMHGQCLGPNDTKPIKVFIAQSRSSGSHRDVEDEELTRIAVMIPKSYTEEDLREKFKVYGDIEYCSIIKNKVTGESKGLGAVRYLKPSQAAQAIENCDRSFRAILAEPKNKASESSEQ

[3] = molecular target: T3, RRM1 analog D53A (Homo sapiens, UniProt Q8IUH3 23-202, D53A;F124A;Y165A)
T3 sequence: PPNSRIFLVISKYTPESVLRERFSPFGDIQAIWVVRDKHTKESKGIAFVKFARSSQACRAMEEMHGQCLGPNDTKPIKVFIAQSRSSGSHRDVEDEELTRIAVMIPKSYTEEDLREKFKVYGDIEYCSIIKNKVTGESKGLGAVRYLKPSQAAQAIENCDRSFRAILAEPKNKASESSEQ

[4] = molecular target: T4, RRM1 analog W55A (Homo sapiens, UniProt Q8IUH3 23-202, W55A;F124A;Y165A)
T4 sequence: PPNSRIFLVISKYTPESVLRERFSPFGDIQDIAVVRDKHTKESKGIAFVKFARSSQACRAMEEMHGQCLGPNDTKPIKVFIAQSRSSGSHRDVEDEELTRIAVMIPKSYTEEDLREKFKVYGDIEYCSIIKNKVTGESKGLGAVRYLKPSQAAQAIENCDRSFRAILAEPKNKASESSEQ

[5] = molecular target: T5, RBM45 RRM1-2 F124A/Y165A (RRM1 analog) (Homo sapiens, UniProt Q8IUH3 23-202, F124A;Y165A)
T5 sequence: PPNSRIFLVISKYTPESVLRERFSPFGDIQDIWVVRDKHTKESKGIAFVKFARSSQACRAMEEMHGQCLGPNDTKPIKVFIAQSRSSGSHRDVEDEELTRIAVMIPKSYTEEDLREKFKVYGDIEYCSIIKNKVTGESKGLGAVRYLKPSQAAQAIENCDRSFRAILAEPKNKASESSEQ

[6] = molecular target: T6, RBM45 RRM1-2 quadruple mutant (Homo sapiens, UniProt Q8IUH3 23-202, F29A;F70A;F124A;Y165A)
T6 sequence: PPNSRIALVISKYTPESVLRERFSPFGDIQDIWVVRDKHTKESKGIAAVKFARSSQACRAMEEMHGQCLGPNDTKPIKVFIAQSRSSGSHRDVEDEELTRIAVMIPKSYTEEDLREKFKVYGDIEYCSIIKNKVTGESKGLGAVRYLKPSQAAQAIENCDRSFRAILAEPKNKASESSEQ

B1: GGACGG RNA (ssRNA)
RNA: GGACGG
Binder B1 has a Kd [1] of 7.38 µM, a Kd [2] of 14.4 µM and a Kd [3] of 1.99 µM. For the same binder, the Kd [4] was 3.54 µM, the Kd [5] was 0.788 ± 0.092 µM and the binding signal [6] was roughly 150 fold decrease vs WT.

— PMC7968997
